What was measured:
HIPK3 (h) = target: T1, HIPK3 (h) (Homo sapiens, UniProt Q9H422); experiment: Kinase Profiling Assay; format: biochemical; conditions: 100 μM
T1 construct: purchased Millipore
Procedure, shortened: (§1)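 Specificity of MK2 inhibitory peptides is assessed against a panel of 266 human kinases. Kinase transfers a radiolabeled phosphate from ATP onto a positively charged substrate, which is trapped on a negatively charged filter and quantified by scintillation counting against full-activity control; duplicate determinations.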

PAK3 (h) = target: T2, PAK3 (h) (Homo sapiens, UniProt O75914); experiment: Kinase Profiling Assay; format: biochemical; conditions: 100 μM
T2 construct: purchased Millipore
Procedure, shortened: as §1

Aurora-A (h) = target: T3, Aurora-A (h) (Homo sapiens, UniProt O14965); experiment: Kinase Profiling Assay; format: biochemical; conditions: 100 μM
T3 sequence (O14965 1-403): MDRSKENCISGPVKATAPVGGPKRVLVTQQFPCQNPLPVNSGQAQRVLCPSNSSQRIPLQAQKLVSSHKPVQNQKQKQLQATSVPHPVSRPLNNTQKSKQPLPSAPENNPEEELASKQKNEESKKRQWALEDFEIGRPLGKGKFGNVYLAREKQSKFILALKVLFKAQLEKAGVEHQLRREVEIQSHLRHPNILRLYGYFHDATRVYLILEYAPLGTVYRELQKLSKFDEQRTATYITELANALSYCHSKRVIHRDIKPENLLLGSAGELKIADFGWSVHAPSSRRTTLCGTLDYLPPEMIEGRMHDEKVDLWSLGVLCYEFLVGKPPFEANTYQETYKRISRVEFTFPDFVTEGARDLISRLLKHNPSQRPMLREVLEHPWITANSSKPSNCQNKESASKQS
Procedure, shortened: as §1

CK1γ2 (h) = target: T4, CK1γ2 (h) (Homo sapiens, UniProt P78368); experiment: Kinase Profiling Assay; format: biochemical; conditions: 100 μM
T4 construct: purchased Millipore
Procedure, shortened: as §1

c-RAF (h) = target: T5, c-RAF (h) (Homo sapiens, UniProt P04049); experiment: Kinase Profiling Assay; format: biochemical; conditions: 100 μM
T5 construct: purchased Millipore
Procedure, shortened: as §1

PKA (h) = target: T6, PKA (h) (Homo sapiens, UniProt P17612); experiment: Kinase Profiling Assay; format: biochemical; conditions: 100 μM
T6 construct: purchased Millipore
Procedure, shortened: as §1

[1] = test system: human fetal lung fibroblasts (IMR-90), fibronectin; experiment: TGF-β-mediated fibronectin expression; format: cell-based; conditions: 1 h pre-treatment, then TGF-β1 (2 ng/ml) 72 h
Protocol: Fibronection was measured as secreted fragments in the conditioned media. Equal amounts (14 μg) of total proteins from the conditioned media were loaded in each lane.

Plk1 (h) = Plk1 (h) (Homo sapiens, UniProt P53350); experiment: Kinase Profiling Assay; format: biochemical; conditions: 100 μM
Procedure, shortened: as §1

CLK2 (h) = target: T7, CLK2 (h) (Homo sapiens, UniProt P49760); experiment: Kinase Profiling Assay; format: biochemical; conditions: 100 μM
T7 construct: purchased Millipore
Procedure, shortened: as §1

CK1γ1 (h) = target: T8, CK1γ1 (h) (Homo sapiens, UniProt Q9HCP0); experiment: Kinase Profiling Assay; format: biochemical; conditions: 100 μM
T8 construct: purchased Millipore
Procedure, shortened: as §1

[2] = test system: bleomycin-induced lung fibrosis; experiment: Bleomycin mouse model of pulmonary fibrosis (prevention model); format: in vivo, C57BL/6 mice; conditions: 25, 50 or 75 μg/kg daily IP, day 7 through day 21
Protocol: A mouse model of pulmonary fibrosis was generated by administering 0.025 U of bleomycin/PBS intratracheally to C57BL/6 mice. […] At 21 day post bleomycin delivery (for prevention model) or 28 post bleomycin delivery (for treatment model), groups of mice were sacrificed with a sodium pentobarbital injection (120 mg/kg) and the chest cavity was opened. The right mainstem bronchus was ligated and the right lung was removed. The trachea was cannulated and the left lung was perfused with 4% formaldehyde at 21 cm H2O pressure. The tissue blocks then were embedded in paraffin, and […] sections were prepared for staining. Sections from each animal were stained with hematoxylin and eosin (H&E) to visualize cells or with Masson's Trichrome staining to highlight collagen deposition. […] Stained sections were mounted onto a labeled glass slide with organic mounting medium.
Briefly, fibrotic loci in the lungs of the mice were induced by delivering intratracheally about 0.025 U of bleomycin (dissolved in PBS) to C57BL/6 mice. […] Briefly, mice were sacrificed with a sodium pentobarbital injection (120 mg/kg) and the chest cavity was opened. The right mainstem bronchus was ligated and the right lung was removed. The trachea was cannulated and the left lung was perfused with 4% formaldehyde at 21 cm H2O pressure. The tissue blocks then were embedded in paraffin, and […] sections were prepared, and stained with hematoxylin and eosin (H&E; for pathological examination) or Masson's Trichrome (for collagen staining)
Next, total collagen levels in the lungs of the bleomycin-injured mice (FIG. 12) were analyzed quantitatively by computing a constant conversion factor (7.5) for collagen from hydroxyproline concentrations (Neuman R. and Logan M, J Biol Chem., 186(2):549-56, 1950, incorporated by reference).
Next, the effect of increasing doses of MK2 peptide inhibitors on collagen deposition was examined in vivo using the bleomycin mouse model of idiopathic pulmonary fibrosis (prevention model). Briefly, C57-BL/6 mice were subjected to bleomycin injury at day 0.

[3] = test system: human fetal lung fibroblasts (IMR-90), α-SMA; experiment: TGF-β-induced myofibroblast activation, α-SMA immunoblot; format: cell-based; conditions: 1 h pre-treatment, then TGF-β1 (2 ng/ml) 48 h
Excerpt: Cell lysates were immunoblotted against antibodies for α-SMA (a marker for myofibroblast activation) and GAPDH (loading control).

PAK6 (h) = target: T9, PAK6 (h) (Homo sapiens, UniProt Q9NQU5); experiment: Kinase Profiling Assay; format: biochemical; conditions: 100 μM
T9 construct: purchased Millipore
Procedure, shortened: as §1

T1 sequence (Q9H422 whole entry): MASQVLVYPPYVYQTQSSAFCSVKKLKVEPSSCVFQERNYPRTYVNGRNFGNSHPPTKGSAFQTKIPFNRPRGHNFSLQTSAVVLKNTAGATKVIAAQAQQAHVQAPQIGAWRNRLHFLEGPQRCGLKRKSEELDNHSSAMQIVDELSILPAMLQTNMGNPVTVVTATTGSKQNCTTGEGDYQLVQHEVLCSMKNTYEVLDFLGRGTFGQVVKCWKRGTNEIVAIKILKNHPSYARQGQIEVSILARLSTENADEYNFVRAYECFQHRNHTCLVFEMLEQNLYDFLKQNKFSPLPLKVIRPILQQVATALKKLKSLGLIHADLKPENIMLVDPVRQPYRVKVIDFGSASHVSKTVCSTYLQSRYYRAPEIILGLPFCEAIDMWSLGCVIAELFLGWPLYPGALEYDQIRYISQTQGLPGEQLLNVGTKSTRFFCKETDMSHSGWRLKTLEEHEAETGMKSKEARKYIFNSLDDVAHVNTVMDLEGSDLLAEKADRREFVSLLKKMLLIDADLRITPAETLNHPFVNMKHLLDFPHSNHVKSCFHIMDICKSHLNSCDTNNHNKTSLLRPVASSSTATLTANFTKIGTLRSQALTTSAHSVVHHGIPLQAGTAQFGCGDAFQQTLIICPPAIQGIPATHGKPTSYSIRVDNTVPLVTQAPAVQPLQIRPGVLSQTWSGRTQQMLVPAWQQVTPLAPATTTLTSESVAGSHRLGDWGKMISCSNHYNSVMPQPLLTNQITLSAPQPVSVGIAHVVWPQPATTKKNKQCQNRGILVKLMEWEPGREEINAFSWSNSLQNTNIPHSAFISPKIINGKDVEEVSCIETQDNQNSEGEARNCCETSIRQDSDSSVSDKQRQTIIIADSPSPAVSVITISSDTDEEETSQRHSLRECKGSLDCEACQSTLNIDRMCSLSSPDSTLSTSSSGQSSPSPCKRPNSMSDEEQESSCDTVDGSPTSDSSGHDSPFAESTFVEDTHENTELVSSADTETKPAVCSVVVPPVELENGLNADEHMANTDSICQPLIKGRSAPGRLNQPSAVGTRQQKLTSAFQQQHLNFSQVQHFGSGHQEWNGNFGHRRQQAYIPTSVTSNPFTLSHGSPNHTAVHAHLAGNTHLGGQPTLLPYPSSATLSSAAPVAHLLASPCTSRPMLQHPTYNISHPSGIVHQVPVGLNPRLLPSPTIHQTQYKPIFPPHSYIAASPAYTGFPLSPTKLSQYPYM
T2 sequence (O75914 whole entry): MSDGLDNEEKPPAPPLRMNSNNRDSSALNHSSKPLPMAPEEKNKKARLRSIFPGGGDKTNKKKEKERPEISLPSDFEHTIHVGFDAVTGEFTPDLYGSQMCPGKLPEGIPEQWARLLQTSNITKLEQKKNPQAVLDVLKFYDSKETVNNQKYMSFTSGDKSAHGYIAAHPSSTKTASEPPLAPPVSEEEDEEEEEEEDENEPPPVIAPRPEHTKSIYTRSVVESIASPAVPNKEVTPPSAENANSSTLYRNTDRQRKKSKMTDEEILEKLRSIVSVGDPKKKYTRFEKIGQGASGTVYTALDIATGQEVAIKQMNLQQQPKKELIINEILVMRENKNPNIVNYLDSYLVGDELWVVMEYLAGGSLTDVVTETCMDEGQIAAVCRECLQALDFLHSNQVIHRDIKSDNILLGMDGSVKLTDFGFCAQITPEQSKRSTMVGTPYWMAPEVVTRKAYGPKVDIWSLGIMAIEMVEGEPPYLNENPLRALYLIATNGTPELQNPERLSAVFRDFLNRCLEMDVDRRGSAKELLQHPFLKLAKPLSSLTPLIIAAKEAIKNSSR
T8 sequence (Q9HCP0 whole entry): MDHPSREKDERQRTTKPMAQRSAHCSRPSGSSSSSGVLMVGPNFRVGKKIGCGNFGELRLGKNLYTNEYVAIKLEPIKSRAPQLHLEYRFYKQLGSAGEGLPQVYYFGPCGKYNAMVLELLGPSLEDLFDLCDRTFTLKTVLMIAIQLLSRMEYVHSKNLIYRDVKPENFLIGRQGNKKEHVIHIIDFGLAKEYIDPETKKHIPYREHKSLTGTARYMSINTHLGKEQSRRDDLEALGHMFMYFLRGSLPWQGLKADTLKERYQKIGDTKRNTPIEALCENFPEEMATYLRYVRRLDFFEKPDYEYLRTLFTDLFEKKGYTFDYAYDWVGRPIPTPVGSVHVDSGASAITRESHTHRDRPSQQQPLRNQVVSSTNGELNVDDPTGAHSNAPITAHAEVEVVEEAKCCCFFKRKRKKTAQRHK
T7 sequence (P49760 whole entry): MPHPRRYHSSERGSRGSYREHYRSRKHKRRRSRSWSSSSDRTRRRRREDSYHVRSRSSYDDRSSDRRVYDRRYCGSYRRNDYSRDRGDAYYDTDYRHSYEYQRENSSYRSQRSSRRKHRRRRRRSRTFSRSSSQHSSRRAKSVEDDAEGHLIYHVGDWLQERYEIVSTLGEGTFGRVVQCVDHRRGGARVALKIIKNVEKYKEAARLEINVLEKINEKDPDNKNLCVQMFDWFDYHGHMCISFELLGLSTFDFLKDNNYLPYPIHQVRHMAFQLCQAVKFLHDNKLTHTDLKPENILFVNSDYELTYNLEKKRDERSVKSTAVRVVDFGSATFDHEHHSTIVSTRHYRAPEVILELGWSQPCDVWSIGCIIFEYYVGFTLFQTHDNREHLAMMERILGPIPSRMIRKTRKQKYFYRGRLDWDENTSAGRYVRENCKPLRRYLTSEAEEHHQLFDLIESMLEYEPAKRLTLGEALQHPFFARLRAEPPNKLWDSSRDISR
T9 sequence (Q9NQU5 whole entry): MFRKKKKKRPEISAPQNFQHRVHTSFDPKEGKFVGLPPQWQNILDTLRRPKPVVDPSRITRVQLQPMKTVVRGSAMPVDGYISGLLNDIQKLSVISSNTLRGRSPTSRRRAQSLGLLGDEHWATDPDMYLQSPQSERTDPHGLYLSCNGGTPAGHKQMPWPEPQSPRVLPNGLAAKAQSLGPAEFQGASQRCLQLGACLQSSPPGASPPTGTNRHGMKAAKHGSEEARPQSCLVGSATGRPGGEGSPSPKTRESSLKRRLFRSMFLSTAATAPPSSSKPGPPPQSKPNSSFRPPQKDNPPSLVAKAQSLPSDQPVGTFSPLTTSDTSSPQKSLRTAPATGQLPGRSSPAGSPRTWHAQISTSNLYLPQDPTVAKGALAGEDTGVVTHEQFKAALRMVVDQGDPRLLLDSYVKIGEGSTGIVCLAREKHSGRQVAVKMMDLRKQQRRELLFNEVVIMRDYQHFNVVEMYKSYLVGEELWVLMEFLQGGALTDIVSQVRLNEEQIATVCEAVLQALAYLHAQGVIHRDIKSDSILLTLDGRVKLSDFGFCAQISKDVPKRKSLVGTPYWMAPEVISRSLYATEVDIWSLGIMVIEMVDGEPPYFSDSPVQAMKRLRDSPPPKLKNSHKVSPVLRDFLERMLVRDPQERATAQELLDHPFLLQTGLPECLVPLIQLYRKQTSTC
T4 sequence (P78368 whole entry): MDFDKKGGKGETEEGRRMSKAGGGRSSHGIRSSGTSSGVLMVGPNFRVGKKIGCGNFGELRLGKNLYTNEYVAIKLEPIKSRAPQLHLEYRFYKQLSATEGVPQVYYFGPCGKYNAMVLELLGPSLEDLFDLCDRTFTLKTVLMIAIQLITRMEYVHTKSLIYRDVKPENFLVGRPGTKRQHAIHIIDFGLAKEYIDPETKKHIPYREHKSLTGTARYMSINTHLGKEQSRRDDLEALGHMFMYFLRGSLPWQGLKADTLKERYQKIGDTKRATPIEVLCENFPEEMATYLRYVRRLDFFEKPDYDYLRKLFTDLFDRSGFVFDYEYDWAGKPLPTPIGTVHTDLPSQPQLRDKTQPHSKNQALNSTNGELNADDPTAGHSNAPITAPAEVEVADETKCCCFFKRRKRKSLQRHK
Plk1 (h), sequence (P53350 whole entry): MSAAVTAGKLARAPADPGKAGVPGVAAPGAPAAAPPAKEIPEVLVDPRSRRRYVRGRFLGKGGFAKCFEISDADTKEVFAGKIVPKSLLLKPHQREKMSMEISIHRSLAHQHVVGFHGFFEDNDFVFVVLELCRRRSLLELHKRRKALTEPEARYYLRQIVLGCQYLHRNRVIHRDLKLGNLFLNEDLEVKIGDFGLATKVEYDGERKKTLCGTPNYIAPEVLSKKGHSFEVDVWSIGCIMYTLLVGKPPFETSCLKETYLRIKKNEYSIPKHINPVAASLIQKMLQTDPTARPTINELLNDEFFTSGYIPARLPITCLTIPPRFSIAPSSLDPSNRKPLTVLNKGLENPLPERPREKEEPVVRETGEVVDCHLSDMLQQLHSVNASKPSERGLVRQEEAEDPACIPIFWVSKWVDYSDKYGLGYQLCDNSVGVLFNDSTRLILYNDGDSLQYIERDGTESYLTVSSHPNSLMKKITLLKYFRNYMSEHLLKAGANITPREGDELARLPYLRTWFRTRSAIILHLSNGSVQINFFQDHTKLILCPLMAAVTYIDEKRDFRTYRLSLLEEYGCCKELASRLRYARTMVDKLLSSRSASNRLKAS

## FAKLAARLYRKALARQLGVAA [MMI-0300]
HIPK3 (h)
  % activity: 93%
PAK3 (h)
  % activity: 140%
Aurora-A (h)
  % activity: 92%
CK1γ2 (h)
  % activity: 123%

## HRRIKAWLKKIKALARQLGVAA (Mammalian) [MMI-0500]
c-RAF (h)
  % activity: 19%
PKA (h)
  % activity: 118%
HIPK3 (h)
  % activity: 85%
Aurora-A (h)
  % activity: 110%

## YARAAARQARAKALNRQLGVA (Mammalian) [MMI-0200]
[1]
  protein level of fibronectin (secreted fragments in conditioned media): no changes in the protein level
Plk1 (h)
  % activity: 128%
PKA (h)
  % activity: 110%
PAK3 (h)
  % activity: 50%
CLK2 (h)
  % activity: 97%
CK1γ1 (h)
  % activity: 98%
[2]
  collagen levels in the lung (Masson's blue trichrome staining), dose response: did not reduce, but rather increased the collagen deposition
[3]
  protein level of α-smooth muscle actin (α-SMA): no changes in the protein level

## KAFAKLAARLYRKALARQLGVAA [MMI-0400]
PAK6 (h)
  % activity: 100%

Source: US10500249B2, “Compositions and methods for preventing or treating diseases, conditions, or processes characterized by aberrant fibroblast proliferation and extracellular matrix deposition” (MOERAE MATRIX, INC., priority 2014, dated 2019)
